B1: Retinoic acid receptor beta, residues 85 to 161; numbered along this chain, P10826 (parent)
chain: YKPCFVCQDKSSGYHYGVSACEGCKGFFRRSIQKNMIYTCHRDKNCVINKVTRNRCQYCRLQKCFEVGMSKESVRND

Variants of: B1
Experiment: abundance fitness (aPCA) (normalised: wild type 0, dead -1); higher = more abundant; growth selection in yeast, the domain comes from the species named
Details: Homo sapiens

Abundance fitness of substitutions, site by site:
G23: W -0.138; Y -0.452
C24: A -1.03; D -0.47; E -0.842; F -0.577; H -0.896; K -0.89; L -0.624; M -0.817; N -1.07; P -1.06; R -0.793; S -0.793; T -0.736; W -0.955; Y -0.309
K25: A 0.205; C 0.02; D 0.031; E 0.036; F 0.133; G -0.017; H -0.223; I 0.094; L 0.028; N 0.133; Q 0.122; R -0.069; S 0.099; T 0.048; V 0.183; W 0.008; Y -0.047
G26: A -0.021; C -0.107; D 0.162; E 0.107; F -0.193; H -0.109; I -0.078; K -0.49; L -0.265; M -0.396; N 0.246; Q -0.11; R -0.481; S -0.254; T -0.024; V -0.121; W -0.862; Y -0.467
F27: A -0.748; C -0.703; D -0.698; E -0.822; G -0.715; I -0.724; L -0.886; M -0.454; P -0.888; Q -0.97; S -0.773; Y -0.57
F28: A -0.534; C -0.895; E -0.983; G -0.82; H -0.338; I -0.453; K -0.9; L -0.588; M -0.47; N -0.847; P -1.06; Q -0.807; T -0.604; V -0.688; W -0.123; Y -0.439
R29: A 0.072; D -0.079; E 0.167; H 0.162; I 0.069; K -0.092; L 0.026; N 0.145; P -0.77; Q 0.091; S 0.098; T 0.211; V 0.084; W 0.011; Y -0.339
R30: A -0.935; C -0.694; D 0.234; E 0.142; G -0.702; H -0.172; K 0.152; L -1.02; Q -0.311; S -0.644; T -0.707; V -1.02; W -0.647
S31: A -0.121; C -0.12; E -0.505; G -0.774; I -0.413; L -0.6; M -0.486; N -0.508; P -0.611; R -0.559; T 0.148; V -0.341; W -0.09; Y -0.51
I32: A -0.156; C -0.176; D -0.312; F -0.633; G -0.521; K -0.45; L -0.08; M -0.105; N -0.059; P -1.09; Q -0.261; R -0.648; S -0.487; V 0.055; W -0.432; Y -0.056
Q33: A 0.105; C -0.225; D 0.016; E -0.017; F -0.148; G -0.044; H -0.175; I 0.028; K -0.016; L 0.078; M 0.136; N 0.066; P -0.773; R -0.037; S -0.014; T -0.15; V 0.045; W -0.097; Y -0.328
K34: A 0.003; C -0.05; D 0.33; E 0.169; F 0.014; G 0.078; H -0.146; I -0.371; L 0.074; M 0.104
